Reference: patent US20190185898A1

Biological target: core-fucosylated RNase B (21) (bovine) (UniProt P61823)
Assay: ELISA, glycoprotein coated, AAL-biotin in serial dilution

Chain of core-fucosylated RNase B (21) (bovine) (P61823 27-150): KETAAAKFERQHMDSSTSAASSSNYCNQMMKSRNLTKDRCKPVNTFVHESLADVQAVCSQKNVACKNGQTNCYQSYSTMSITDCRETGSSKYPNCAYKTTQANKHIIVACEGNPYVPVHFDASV

B1: Aleuria aurantia lectin (AAL) (protein, UniProt P18891 2-313, looked up)
chain: PTEFLYTSKIAAISWAATGGRQQRVYFQDLNGKIREAQRGGDNPWTGGSSQNVIGEAKLFSPLAAVTWKSAQGIQIRVYCVNKDNILSEFVYDGSKWITGQLGSVGVKVGSNSKLAALQWGGSESAPPNIRVYYQKSNGSGSSIHEYVWSGKWTAGASFGSTVPGTGIGATAIGPGRLRIYYQATDNKIREHCWDSNSWYVGGFSASASAGVSIAAISWGSTPNIRVYWQKGREELYEAAYGGSWNTPGQIKDASRPTPSLPDTFIAANSSGNIDISVFFQASGVSLQQWQWISGKGWSIGAVVPTGTPAGW
modifications: biotin label (AAL-biotin), site not stated
  EC50: 275 µM
